Reference: patent US20090149343A1, “HISTONES” (priority 2006, published 2009)

Molecular target: T1, micro-array bound histone H3 peptides (Homo sapiens, UniProt P68431)
T1 construct: 48 discrete histone H3 peptides containing a wide range of histone modifications at defined residues; made in house; host or cells: peptides by chemical solid phase synthesis
Test: Histone peptide microarray-based methylation assay (SET 7/9)
Assay type: biochemical
Conditions: 12 hrs, 30° C. methylation buffer; 100 uM, 70 ul SET 7/9; FIG. 15
Method: FIG. 15. SET 7/9 dependent methylation of micro-array bound histone peptides. Microarray slides containing duplicate arrays (dashed boxes) of 48 discrete histone H3 peptides containing a wide range of histone modifications at defined residues. These were incubated with the methyl-transferase enzyme SET7/9 (Bottom panel) or a buffer containing no enzyme (Control, top panel), and subsequently probed with an anti-H3K4me1 antibody.
Methylation assays were performed using the recombinant human histone methyl-transferase SET 7/9 under standard methylation conditions. Assays on the microarrays of the invention were performed under coverslips, enabling small volumes of reagent usage per assay (70 μl). Enzyme-mediated methylation is detected by a histone methyl specific antibody (i.e. anti-histone H3 mono-methyl K4) by standard Western blotting conditions.
Importantly, reproducible patterns of modification are generated on the different peptides (the dashed boxes contain duplicate arrays of 48 epitope spots) allowing users to analyse the effects of defined modifications on methyl transfer by the enzyme.

B1: SET 7/9: recombinant human histone methyl-transferase SET 7/9 (protein)
chain: MDSDDEMVEEAVEGHLDDDGLPHGFCTVTYSSTDRFEGNFVHGEKNGRGKFFFFDGSTLEGYYVDDALQGQGVYTYEDGGVLQGTYVDGELNGPAQEYDTDGRLIFKGQYKDNIRHGVCWIYYPDGGSLVGEVNEDGEMTGEKIAYVYPDERTALYGKFIDGEMIEGKLATLMSTEEGRPHFELMPGNSVYHFDKSTSSCISTNALLPDPYESERVYVAESLISSAGEGLFSKVAVGPNTVMSFYNGVRITHQEVDSRDWALNGNTLSLDEETVIDVPEPYNHVSKYCASLGHKANHSFTPNCIYDMFVHPRFGPIKCIRTLRAVEADEELTVAYGYDHSPPGKSGPEAPEWYQVELKAFQATQQK
enzyme-mediated methylation of array peptides detected by anti-histone H3 mono-methyl K4 antibody: specific enzymatic methyl transferase activity occurs
